Usually stoichiometry N stands for a count of units in the complex or per binding partner.

Assay [1] concerns the target Phaseolus acutifolius agglutinin (lectin from white tepary bean, Phaseolus acutifolius variety latifolius) (Phaseolus acutifolius).
Assay [2] shares this target. Kind of assay: SEC. (In general: SEC sorts molecules by how far they enter the pores of the column.)
Assay [3] shares this target. Kind of assay: SEC; TSK 3000 SW HPLC column in PBS, 0.5 mL/min, 0.1 mg pure lectin; data not shown.
Assay [4] has the same target. Description: native gel or EMSA. In general terms: In EMSA bound probe runs differently from free probe, usually more slowly.

Several values for one entry are separate records, joined by “and”; a condition that tells them apart may be missing. Identical values can stand only once. Some results are limits rather than exact numbers.

Take “Ovoalbumin (from UniProt P01012 1-386) (natural protein)”: in assay [1], the Inhibitory concentration (lowest concentration giving complete inhibition) of hemagglutination of trypsinized human A erythrocytes by PAA amounted to 1.3 mg/mL and the Inhibitory concentration (lowest concentration giving complete inhibition) of hemagglutination of trypsinized human O erythrocytes by PAA was 1.3 mg/mL.

On to “Phaseolus acutifolius agglutinin (lectin from white tepary bean, Phaseolus acutifolius variety latifolius) (natural protein)”, for which the stoichiometry N in assay [2] was 4 and 2; in assay [3] it was 2; in assay [4], > 4.

In assay [1], “Porcine thyroglobulin (from UniProt F1RRV3 20-2692) (natural protein)” showed an Inhibitory concentration (lowest concentration giving complete inhibition) of hemagglutination of trypsinized human A erythrocytes by PAA of 0.0048 mg/mL and an Inhibitory concentration (lowest concentration giving complete inhibition) of hemagglutination of trypsinized human O erythrocytes by PAA of 0.0048 mg/mL.

In assay [1], “Recombinant soluble human β-1,6-N-acetylglucosaminyltransferase V (from UniProt Q09328 1-741) (enzyme)” showed an Inhibitory concentration (lowest concentration giving complete inhibition) of hemagglutination of trypsinized human A erythrocytes by PAA of 0.0273 mg/mL and an Inhibitory concentration (lowest concentration giving complete inhibition) of hemagglutination of trypsinized human O erythrocytes by PAA of 0.0017 mg/mL.

B1: Bovine fibrinogen (complex)
chain 1: GPRLVERQQSACKETGWPFCSDEDWNTKCPSGCRMKGLIDEVDQDFTSRINKLRDSLFNYQKNSKDSNTLTKNIVELMRGDFAKANNNDNTFKQISEDLRSRIEILRRKVIEQVQRIKVLQKNVRDQLVDMKRLEVDIDIKIRSCKGSCSRALEHKVDLEDYKNQQKQLEQVIAINLLPSRDIQYLPLIKMSTITGPVPREFKSQLQEAPLEWKALLEMQQTKMVLETFGGDGHARGDSVSQGTGLAPGSPRKPGTSSIGNVNPGSYGPGSSGTWNPGRPEPGSAGTWNPGRPEPGSAGTWNPGRPEPGSAGTWNPGRPEPGSAGTWNPGRPEPGSAGTWNTGSSGSSSFRPDSSGHGNIRPSSPDWGTFREEGSVSSGTKQEFHTGKLVTTKGDKELLIDNEKVTSGHTTTTRRSCSKVITKTVTNADGRTETTKEVVKSEDGSDCGDADFDWHHTFPSRGNLDDFFHRDKDDFFTRSSHEFDGRTGLAPEFAALGESGSSSSKTSTHSKQFVSSSTTVNRGGSAIESKHFKMEDEAESLEDLGFKGAHGTQKGHTKARPARGIHTSPLGEPSLTP
chain 2: GHRPYDKKKEEAPSLRPVPPPISGGGYRARPATATVGQKKVERKPPDADGCLHADPDLGVLCPTGCKLQDTLVRQERPIRKSIEDLRNTVDSVSRTSSSTFQYITLLKNMWKGRQNQVQDNENVVNEYSSHLEKHQLYIDETVKNNIPTKLRVLRSILENLRSKIQKLESDVSTQMEYCRTPCTVTCNIPVVSGKECEKIIRNEGETSEMYLIQPEDSSKPYRVYCDMKTEKGGWTVIQNRQDGSVDFGRKWDPYKQGFGNIATNAEGKKYCGVPGEYWLGNDRISQLTNMGPTKLLIEMEDWKGDKVTALYEGFTVQNEANKYQLSVSKYKGTAGNALIEGASQLVGENRTMTIHNSMFFSTYDRDNDGWKTTDPRKQCSKEDGGGWWYNRCHAANPNGRYYWGGAYTWDMAKHGTDDGVVWMNWQGSWYSMKKMSMKIRPYFPEQ
chain 3: YVATRDNCCILDERFGSYCPTTCGIADFLNNYQTSVDKDLRTLEGILYQVENKTSEARELVKAIQISYNPDQPSKPNNIESATKNSKSMMEEIMKYETLISTHESTIRFLQEVYNSNSQKIVNLRDKVVQLEANCQEPCQDTVKIHDVTGRDCQDVANKGAKESGLYFIRPLKAKQFLVYCEIDGSGNGWTVFQKRLDGSLDFKKNWIQYKEGFGHLSPTGTGNTEFWLGNEKIHLISTQSSIPYVLRIQLEDWNGRTSTADYASFKVTGENDKYRLTYAYFIGGDAGDAFDGYDFGDDSSDKFFTSHNGMQFSTWDSDNDKYDGNCAEQVGIGWWMNKCHAGHLNGVYYQGGTYSKTSTPNGYDNGIIWATWKSRWYSMKKTTMKIIPLNRLAIGEGQQHQLGGAKQVGVEHHVEIEYD
B1: in assay [1], the Inhibitory concentration (lowest concentration giving complete inhibition) of hemagglutination of trypsinized human A erythrocytes by PAA turned out to be 0.0391 mg/mL and the Inhibitory concentration (lowest concentration giving complete inhibition) of hemagglutination of trypsinized human O erythrocytes by PAA came to 0.0098 mg/mL.

B2: Bovine fetuin (natural protein)
chain: IPLDPVAGYKEPACDDPDTEQAALAAVDYINKHLPRGYKHTLNQIDSVKVWPRRPTGEVYDIEIDTLETTCHVLDPTPLANCSVRQQTQHAVEGDCDIHVLKQDGQFSVLFTKCDSSPDSAEDVRKLCPDCPLLAPLNDSRVVHAVEVALATFNAESNGSYLQLVEISRAQFVPLPVSVSVEFAVAATDCIAKEVVDPTKCNLLAEKQYGFCKGSVIQKALGGEDVRVTCTLFQTQPVIPQPQPDGAEAEAPSAVPDAAGPTPSAAGPPVASVVVGPSVVAVPLPLHRAHYDLRHTFSGVASVESSSGEAFHVGKTPIVGQPSIPGGPVRLCPGRIRYFKI
modifications: glycoprotein with N-linked biantennary and triantennary complex oligosaccharides (sites not given)
In assay [1], B2 displayed an Inhibitory concentration (lowest concentration giving complete inhibition) of hemagglutination of trypsinized human A erythrocytes by PAA of 0.156 mg/mL and an Inhibitory concentration (lowest concentration giving complete inhibition) of hemagglutination of trypsinized human O erythrocytes by PAA of 0.0781 mg/mL.

For the origin of these results see article PMC6259754.
